The text below walks through data of publication PMC8887487 (Nucleic Acids Research, 2022).

The target of experiment [1] is GST (glutathione-S-transferase)-tagged RPAP3 (human, UniProt Q9H6T3 1-665). The experiment is described as follows: pull-down.
For the next experiment, the target named is T1, 256–595 domain of Dicer (human, UniProt Q9UPY3 256-595).
T1 sequence: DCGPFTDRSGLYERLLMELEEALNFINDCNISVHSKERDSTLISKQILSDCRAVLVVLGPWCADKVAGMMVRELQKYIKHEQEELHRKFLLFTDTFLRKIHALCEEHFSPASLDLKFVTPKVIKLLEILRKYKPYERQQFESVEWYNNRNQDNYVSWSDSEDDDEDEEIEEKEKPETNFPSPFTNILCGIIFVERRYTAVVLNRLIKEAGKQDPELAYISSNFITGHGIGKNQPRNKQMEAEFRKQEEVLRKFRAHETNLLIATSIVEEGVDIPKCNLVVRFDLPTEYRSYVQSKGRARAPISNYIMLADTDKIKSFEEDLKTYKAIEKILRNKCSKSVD
The experiment is described as follows: SEC. (Size exclusion chromatography separates by hydrodynamic size, large species first.)

Chain of GST (glutathione-S-transferase)-tagged RPAP3 (Q9H6T3 whole entry, the tested form may be a part): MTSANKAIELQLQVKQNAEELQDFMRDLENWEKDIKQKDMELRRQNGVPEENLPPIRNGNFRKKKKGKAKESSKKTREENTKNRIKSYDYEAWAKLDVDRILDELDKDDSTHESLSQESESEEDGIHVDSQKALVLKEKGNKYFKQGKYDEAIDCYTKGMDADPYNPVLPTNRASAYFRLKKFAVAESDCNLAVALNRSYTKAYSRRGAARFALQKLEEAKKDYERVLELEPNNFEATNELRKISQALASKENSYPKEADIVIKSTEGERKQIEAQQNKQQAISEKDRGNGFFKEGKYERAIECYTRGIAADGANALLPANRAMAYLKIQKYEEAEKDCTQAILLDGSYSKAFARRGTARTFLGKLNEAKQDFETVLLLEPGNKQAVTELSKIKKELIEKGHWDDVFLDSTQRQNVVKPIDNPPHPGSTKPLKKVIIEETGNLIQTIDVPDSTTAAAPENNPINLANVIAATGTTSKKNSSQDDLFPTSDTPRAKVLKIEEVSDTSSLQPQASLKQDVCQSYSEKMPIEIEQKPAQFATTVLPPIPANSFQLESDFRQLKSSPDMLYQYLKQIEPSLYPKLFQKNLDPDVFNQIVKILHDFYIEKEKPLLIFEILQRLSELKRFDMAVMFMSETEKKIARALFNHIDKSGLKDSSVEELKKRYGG

B1: His6-tagged TRBP protein (natural protein)
chain: MSEEEQGSGTTTGCGLPSIEQMLAANPGKTPISLLQEYGTRIGKTPVYDLLKAEGQAHQPNFTFRVTVGDTSCTGQGPSKKAAKHKAAEVALKHLKGGSMLEPALEDSSSFSPLDSSLPEDIPVFTAAAAATPVPSVVLTRSPPMELQPPVSPQQSECNPVGALQELVVQKGWRLPEYTVTQESGPAHRKEFTMTCRVERFIEIGSGTSKKLAKRNAAAKMLLRVHTVPLDARDGNEVEPDDDHFSIGVGSRLDGLRNRGPGCTWDSLRNSVGEKILSLRSCSLGSLGALGPACCRVLSELSEEQAFHVSYLDIEELSLSGLCQCLVELSTQPATVCHGSATTREAARGEAARRALQYLKIMAGSK
With B1, in experiment [1], the binding result is listed as “binds”.

B2: TRBP-dsRBD3 (262–366) (domain or fragment)
chain: GCTWDSLRNSVGEKILSLRSCSLGSLGALGPACCRVLSELSEEQAFHVSYLDIEELSLSGLCQCLVELSTQPATVCHGSATTREAARGEAARRALQYLKIMAGSK
On to B2, for which the binding result in the experiment with 256–595 domain of Dicer was “binds”.
